What is called Kd is the constant that tells how readily two partners part at equilibrium. A lower Kd goes with a tighter complex.

Results on two substances are retold here after patent US20040005643A1.

Experiment [1] has as its target human tenascin-C (human) (UniProt P24821). Nature of the experiment: BIAcore. For orientation: SPR reads the build-up and loss of mass on a sensor chip optically.
Experiment [2] has the same target. Nature of the experiment: ELISA, biotinylated antibody, 2-3 moles biotin/antibody. For orientation: An ELISA detects its analyte on a solid surface through an enzyme-linked reagent.
The target is the same in experiment [3]. Nature of the experiment: ELISA, biotinylated antibody, 7-10 moles biotin/antibody.
Experiment [4] has the same target. Nature of the experiment: ELISA, biotinylated antibody, 3.5-5 moles biotin/antibody.
For experiment [5] the target is unchanged. Nature of the experiment: immunoreactivity of the batch used for biodistribution, 7-10 biotins/mole.
The target is the same in experiment [6]. Nature of the experiment: ELISA, biotinylated antibody, 15-20 moles biotin/antibody.

human tenascin-C (human), sequence (P24821 23-2201 limits assumed): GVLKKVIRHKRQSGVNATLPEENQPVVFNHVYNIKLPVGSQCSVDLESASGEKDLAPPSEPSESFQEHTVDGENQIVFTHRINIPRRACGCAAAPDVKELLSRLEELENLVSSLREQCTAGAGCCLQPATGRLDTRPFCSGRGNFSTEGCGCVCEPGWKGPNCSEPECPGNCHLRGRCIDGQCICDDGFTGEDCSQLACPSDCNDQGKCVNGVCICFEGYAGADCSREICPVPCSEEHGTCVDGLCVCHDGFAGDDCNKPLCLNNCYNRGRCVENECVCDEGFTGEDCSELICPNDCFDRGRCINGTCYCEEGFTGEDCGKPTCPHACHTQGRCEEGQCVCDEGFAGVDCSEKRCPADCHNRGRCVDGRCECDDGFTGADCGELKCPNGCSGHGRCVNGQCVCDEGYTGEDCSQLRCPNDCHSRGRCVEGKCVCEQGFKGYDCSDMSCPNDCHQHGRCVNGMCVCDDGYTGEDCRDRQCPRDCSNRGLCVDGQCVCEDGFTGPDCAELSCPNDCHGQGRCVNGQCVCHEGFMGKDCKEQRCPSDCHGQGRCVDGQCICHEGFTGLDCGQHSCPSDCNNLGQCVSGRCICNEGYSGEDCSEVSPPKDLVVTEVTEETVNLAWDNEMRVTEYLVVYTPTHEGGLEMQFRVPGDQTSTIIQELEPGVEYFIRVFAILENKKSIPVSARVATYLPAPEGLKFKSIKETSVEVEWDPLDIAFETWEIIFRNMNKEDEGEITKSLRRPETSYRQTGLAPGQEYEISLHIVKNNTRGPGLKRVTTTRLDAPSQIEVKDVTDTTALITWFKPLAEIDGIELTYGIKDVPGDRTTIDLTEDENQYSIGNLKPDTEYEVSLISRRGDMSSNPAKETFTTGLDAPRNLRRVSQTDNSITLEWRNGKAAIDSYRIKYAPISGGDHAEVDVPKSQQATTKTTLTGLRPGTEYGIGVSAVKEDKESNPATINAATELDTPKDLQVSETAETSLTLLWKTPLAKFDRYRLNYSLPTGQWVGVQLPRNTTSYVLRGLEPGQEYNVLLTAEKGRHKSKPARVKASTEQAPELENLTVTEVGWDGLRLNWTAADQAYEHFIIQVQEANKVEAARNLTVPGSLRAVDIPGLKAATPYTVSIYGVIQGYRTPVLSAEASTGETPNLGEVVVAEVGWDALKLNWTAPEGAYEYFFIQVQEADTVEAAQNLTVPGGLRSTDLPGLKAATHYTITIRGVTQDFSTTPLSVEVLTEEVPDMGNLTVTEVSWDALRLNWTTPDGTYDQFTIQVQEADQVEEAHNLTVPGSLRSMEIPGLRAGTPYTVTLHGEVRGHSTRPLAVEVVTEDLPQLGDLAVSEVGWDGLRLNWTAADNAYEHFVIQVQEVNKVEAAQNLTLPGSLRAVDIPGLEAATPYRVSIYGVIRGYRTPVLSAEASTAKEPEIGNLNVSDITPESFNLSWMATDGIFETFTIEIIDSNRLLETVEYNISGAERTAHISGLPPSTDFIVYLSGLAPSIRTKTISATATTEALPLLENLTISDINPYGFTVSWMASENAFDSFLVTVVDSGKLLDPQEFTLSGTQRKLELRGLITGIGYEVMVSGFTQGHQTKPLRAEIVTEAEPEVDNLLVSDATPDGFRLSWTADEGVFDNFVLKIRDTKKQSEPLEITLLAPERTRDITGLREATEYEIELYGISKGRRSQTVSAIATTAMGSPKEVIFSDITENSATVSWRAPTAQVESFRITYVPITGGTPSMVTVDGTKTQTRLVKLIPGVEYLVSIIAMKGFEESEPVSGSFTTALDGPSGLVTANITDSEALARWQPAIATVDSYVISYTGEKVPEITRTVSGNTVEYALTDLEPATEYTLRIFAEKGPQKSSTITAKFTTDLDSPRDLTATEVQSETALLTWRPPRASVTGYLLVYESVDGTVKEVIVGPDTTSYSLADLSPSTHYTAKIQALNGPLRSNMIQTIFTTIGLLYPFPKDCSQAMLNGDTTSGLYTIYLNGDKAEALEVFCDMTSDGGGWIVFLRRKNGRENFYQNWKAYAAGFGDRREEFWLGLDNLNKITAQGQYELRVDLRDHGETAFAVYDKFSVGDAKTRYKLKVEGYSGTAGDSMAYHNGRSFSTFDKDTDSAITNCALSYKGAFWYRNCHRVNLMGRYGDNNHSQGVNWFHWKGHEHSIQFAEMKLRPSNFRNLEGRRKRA

“BC4 anti-human tenascin monoclonal antibody”: the equilibrium dissociation constant (Kd) with human tenascin-C (human) [1] was determined as 4.9 nM.

For biotinylated BC4 (antibody), the % of Immunoreactivity was 82.4% in the experiment with human tenascin-C (human) [2], 67.2% with human tenascin-C (human) [3], 74.4% in the experiment with human tenascin-C (human) [4] and 12.6% with human tenascin-C (human) [6]. Further, in the experiment with human tenascin-C (human) [5], the immunoreactivity amounted to 80%.
